Reference: publication PMC4497506 (Journal of medicinal chemistry, 2015)

Molecular target: wild-type HIV-1 YU-2 Env gp120, soluble monomeric (HIV-1 YU-2, UniProt P35961)

B1: mAb F105 (antibody, V domains shown)
VH: QVQLQESGPGLVKPSETLSLTCTVSGGSISSHYWSWIRQSPGKGLQWIGYIYYSGSTNYSPSLKSRVTISVETAKNQFSLKLTSMTAADTAVYYCARGPVPAVFYGDYRLDPWGQGTLVTVSS
VL: EIVLTQSPGTLSLSAGERATLSCRASQSVSSRYLAWYQQKPGQAPRLLIYGASSRATGIPDRFSGSGSGTDFTLTISRVEPEDFAVYYCQQYDNSVCTFGQGTKLEIK
  Kd: 24 nM
